# The RNAGym collection of RNA variant scans (doi:10.1073/pnas.2313332121)
# B1: TPR t1 (parent)
# chain: GACCAAUCUGCCCUCAGAGCUCGAGAACAUCUUCGGAUGCAGAGGAGGCAGGCUUCGGUGGCGCGAUAGCGCCAACGUCCUCAACCUCCAAUGCAUCCCACCACAUGAUGAUGCCUGAAGAGCCUUGGUUUUUUG
# Variants of: B1
# Assay: polymerase ribozyme fitness, log enrichment relative to wild type (log ratio); higher = more active; in vitro selection for triplet polymerase activity
# Method in brief: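 Both subunits of a heterodimeric triplet polymerase ribozyme were given their own mutant library, built by PCR and transcribed. Each library was annealed with a biotinylated primer, the partner subunit and triplets, incubated frozen at −7 °C, and its extended constructs gel-excised, captured on streptavidin beads and amplified by RT-PCR, all in one round done in triplicate. Fitness is the logarithm of genotype enrichment relative to wild-type enrichment, with replicates averaged by inverse-variance weighting. That logarithm is base 2, and Illumina-sequenced genotypes needed ≥10 input reads and ≥1 read per output.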
row,Variant,polymerase ribozyme fitness (log ratio)
1,GACCAAUCUGCCCUCAGAGCUCGAGAACAUCUUCGGAUGCAGAGGAGGCAGGCUUCGGUGGCGCGAUAGCACCAACGUCCUAAACCUCUAAUGCAUCCCACCACAUGAUGAUGCCUGAAGAGCCUUGGUUUUUUG,-1.01
2,GACCAAUCUGCCCUCAGAGCUCGAGAACAUCUUCGGAUGCAGAGGAGGCAGGCUUCGGUGGCGCGAUAGCAUCAACGUCCUCAACCUCCAAUGCAUCCCACCACAUGAUGAUGCCUGAAGAGCCUUGGUUUUUUG,-1.32
3,GACCAAUCUGCCCUCAGAGCUCGAGAACAUCUUCGGAUGCAGAGGAGGCAGGCUUCGGUGGCGCGAUAGCAACAACGUCCUCAACCUCCAAUGCAUCCCACCACAUGAUGAUGCCUGAAGAGCCUUGGUUUUUUG,-1.46
4,GACCAAUCUGCCCUCAGAGCUCGAGAACAUCUUCGGAUGCAGAGGAGGCAGGCUUCGGUGGCGCGAUAGCACCAGCGUCCUCAACCUCCAAUGCAUCCCACCAUAUGAUGAUGCCUGAAGAGCCUUGGUUUUUUG,-0.612
5,GACCAAUCUGCCCUCAGAGCUCGAGAACAUCUUCGGAUGCAGAGGAGGCAGGCUUCGGUGGCGCGAUAGCACCAACGUCCUCCACCUCCAAUCCAUCCCACCACAUGAUGAUGCCUGGAGAGCCUUGGUUUUUUG,-2.9
6,GACCAAUCUGCCCUCAGAGCUCGAGAACAUCUUCGGAUGCAGAGGAGGCAGGCUUCGGUGGCGCGAUAGCACCAACGUCCUCAAUCUCCAAUGCAUCCCACCACAUGAUGAUGCCUGAACAGCCUUGGUUUUUUG,0.00346
7,GACCAAUCUGCCCUCAGAGCUCGAGAACAUCUUCGGAUGCAGAGGAGGCAGGCUUCGGUGGCGCGAUAGCACCAACGUCCUCAACCUCCAAUGCAUCCCACCAAAUGAUGAUGCCUGAAGAGCCUUGGAUUUUUG,-4.5
8,GACCAAUCUGCCCUCAGAGCUCGAGAACAUCUUCGGAUGCAGAGGAGGCAGGCUUCGGUGGCGCGAUAGCACGAACGUCCUCAACCUCCAAUGCAUCCCACCACAUGAUAAUGCCUGAAGAGCCUUGGUUUUUUG,-7.06
9,GACCAAUCUGCCCUCAGAGCUCGAGAACAUCUUCGGAUGCAGAGGAGGCAGGCUUCGGUGGCGCGAUAGCACCAACGUCCUCAACCUCCAAUGCAUCCCACCACAUGAUGAUGCAUGAAGAGCCUUGGUUUUUUG,-2.31
10,GACCAAUCUGCCCUCAGAGCUCGAGAACAUCUUCGGAUGCAGAGGAGGCAGGCUUCGGUGGCGCGAUAGCACCAACGUCCUCAACCUCCAAUGCAUCCCACCACAUGAUGAUGCUUGAAGAGCCUUGGUUUUUUG,-1.95
11,GACCAAUCUGCCCUCAGAGCUCGAGAACAUCUUCGGAUGCAGAGGAGGCAGGCUUCGGUGGCGCGAUAGCACCAACGUCCUCAACCUCCCAUGCAUCCCACCACAUGAUGAUGCCUGAAAAGCCUUGGUUUUUUG,-1.97
12,GACCAAUCUGCCCUCAGAGCUCGAGAACAUCUUCGGAUGCAGAGGAGGCAGGCUUCGGUGGCGCGAUAGCACCAACGUCCUCAAACUCCAAUGCAUCCCACCACAUGAUGAUGCCUGAAGAGCCUUGGUUUUUUG,-2.44
13,GACCAAUCUGCCCUCAGAGCUCGAGAACAUCUUCGGAUGCAGAGGAGGCAGGCUUCGGUGGCGCGAUAGCACCAACGUCCUCAAGCUCCAAUGCAUCCCACCACAUGAUGAUGCCUGAAGAGCCUUGGUUUUUUG,-2.38
14,GACCAAUCUGCCCUCAGAGCUCGAGAACAUCUUCGGAUGCAGAGGAGGCAGGCUUCGGUGGCGCGAUAGCACCAACGUCCUCAACCUCCAAUGUAUCCCACAACAUGAUGAGGCCUGAAAAGCCUUGGUUUUUUG,-4.87
15,GACCAAUCUGCCCUCAGAGCUCGAGAACAUCUUCGGAUGCAGAGGAGGCAGGCUUCGGUGGCGCGAUAGUGCCAACGUCCUCAACCUCCAAUGCAUCCCACCACAUGAUGAUGCCUGAAGAGCCUUGGUUGUUUG,-2.36
16,GACCAAUCUGCCCUCAGAGCUCGAGAACAUCUUCGGAUGCAGAGGAGGCAGGCUUCGGUGGCGCGAUAGCACCAACGUCCUCAUCCUCCAAUGCAUCCCACCACAUGAUGAUGCCUGAAGAGCCUUGGUUUUUUG,-1.02
17,GACCAAUCUGCCCUCAGAGCUCGAGAACAUCUUCGGAUGCAGAGGAGGCAGGCUUCGGUGGCGCGAUAGCACUAACGUCCUCAACCUCCAAUGCAUCCCAACACAUGAUGAUGCCUGAAGAGCCUUGGUUUAUUG,-2.2
18,GACCAAUCUGCCCUCAGAGCUCGAGAACAUCUUCGGAUGCAGAGGAGGCAGGCUUCGGUGGCGCGAUAGCACCAACGUUCUCAACCUCCAAUGCAUCCCACCACAUGAUGAUGCCUGAAGAGUCUUGGUUUUUUG,1.66
19,GACCAAUCUGCCCUCAGAGCUCGAGAACAUCUUCGGAUGCAGAGGAGGCAGGCUUCGGUGGCGCGAUAGCACCAACGUCCUCAACCUCCAAUGCAUCCCACCACAUGAUGAUGCCUGAAGAGCGUUGGUUUUUUG,0.316
20,GACCAAUCUGCCCUCAGAGCUCGAGAACAUCUUCGGAUGCAGAGGAGGCAGGCUUCGGUGGCGCGAUAGCACCAACGUCCUCAGCCUCCAAUGCAUCCCACAACAUGAUGAUGCGUGAAGAGCCUUGGUUUUUUG,-6.59
21,GACCAAUCUGCCCUCAGAGCUCGAGAACAUCUUCGGAUGCAGAGGAGGCAGGCUUCGGUGGCGCGAUAGCACCAACGUCCUCAACCUACAAUGCAUCCCACCACAUGAUGAUGCCUGAAGAGCCUUGGUUUUUUG,-0.898
